Data on 1 variant can be found in IntAct's records for PubMed 32851177.

B1: Osteopetrosis-associated transmembrane protein 1 (Homo sapiens), Q86WC4 (parent)
chain: MEPGPTAAQRRCSLPPWLPLGLLLWSGLALGALPFGSSPHRVFHDLLSEQQLLEVEDLSLSLLQGGGLGPLSLPPDLPDLDPECRELLLDFANSSAELTGCLVRSARPVRLCQTCYPLFQQVVSKMDNISRAAGNTSESQSCARSLLMADRMQIVVILSEFFNTTWQEANCANCLTNNSEELSNSTVYFLNLFNHTLTCFEHNLQGNAHSLLQTKNYSEVCKNCREAYKTLSSLYSEMQKMNELENKAEPGTHLCIDVEDAMNITRKLWSRTFNCSVPCSDTVPVIAVSVFILFLPVVFYLSSFLHSEQKKRKLILPKRLKSSTSFANIQENSN
partner: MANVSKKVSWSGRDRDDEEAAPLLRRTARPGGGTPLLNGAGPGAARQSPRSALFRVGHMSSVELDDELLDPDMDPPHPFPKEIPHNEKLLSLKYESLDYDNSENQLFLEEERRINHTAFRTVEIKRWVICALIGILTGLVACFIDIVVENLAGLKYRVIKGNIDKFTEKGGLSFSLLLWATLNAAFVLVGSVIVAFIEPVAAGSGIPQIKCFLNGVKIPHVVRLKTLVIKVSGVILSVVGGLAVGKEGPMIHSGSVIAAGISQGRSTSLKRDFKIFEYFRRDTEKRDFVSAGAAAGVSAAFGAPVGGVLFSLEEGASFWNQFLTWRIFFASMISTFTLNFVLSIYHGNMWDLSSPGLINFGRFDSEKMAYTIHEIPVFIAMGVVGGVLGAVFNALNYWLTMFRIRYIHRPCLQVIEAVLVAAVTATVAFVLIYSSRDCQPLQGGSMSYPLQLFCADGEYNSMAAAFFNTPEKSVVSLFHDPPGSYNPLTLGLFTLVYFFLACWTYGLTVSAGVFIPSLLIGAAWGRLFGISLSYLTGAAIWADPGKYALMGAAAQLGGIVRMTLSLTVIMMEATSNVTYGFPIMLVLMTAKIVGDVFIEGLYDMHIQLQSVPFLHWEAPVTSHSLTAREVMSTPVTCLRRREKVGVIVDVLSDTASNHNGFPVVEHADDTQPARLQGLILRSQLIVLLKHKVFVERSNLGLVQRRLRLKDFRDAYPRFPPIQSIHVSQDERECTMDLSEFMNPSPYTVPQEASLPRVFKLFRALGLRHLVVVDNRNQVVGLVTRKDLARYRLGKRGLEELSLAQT

The test covers variants of B1. The note with it: with clcn7_human CLCN7, P51798.
In the case of Y300A, the “effect of a mutation on the interaction” value was “decreasing interaction strength”.
